Measurements reported in article PMC10057511.

Target: AP2α/σ2 hemicomplex, both subunits fused to the Venus C-terminal fragment and V5 (UniProt O94973)
Assay: split reporter (BiFC, NanoBiT); HEK293 cells co-transfected with AP2α-Venus-C-V5, AP2σ2-Venus-C-V5 and Nef-HA-Venus-N (400 ng each); fixed the next day in 2% PFA; Venus fluorescence (FITC channel) read by flow cytometry as MFI

UniProt O94973, sequence (O94973 whole entry, chain 1 of 2, the tested form may be a part): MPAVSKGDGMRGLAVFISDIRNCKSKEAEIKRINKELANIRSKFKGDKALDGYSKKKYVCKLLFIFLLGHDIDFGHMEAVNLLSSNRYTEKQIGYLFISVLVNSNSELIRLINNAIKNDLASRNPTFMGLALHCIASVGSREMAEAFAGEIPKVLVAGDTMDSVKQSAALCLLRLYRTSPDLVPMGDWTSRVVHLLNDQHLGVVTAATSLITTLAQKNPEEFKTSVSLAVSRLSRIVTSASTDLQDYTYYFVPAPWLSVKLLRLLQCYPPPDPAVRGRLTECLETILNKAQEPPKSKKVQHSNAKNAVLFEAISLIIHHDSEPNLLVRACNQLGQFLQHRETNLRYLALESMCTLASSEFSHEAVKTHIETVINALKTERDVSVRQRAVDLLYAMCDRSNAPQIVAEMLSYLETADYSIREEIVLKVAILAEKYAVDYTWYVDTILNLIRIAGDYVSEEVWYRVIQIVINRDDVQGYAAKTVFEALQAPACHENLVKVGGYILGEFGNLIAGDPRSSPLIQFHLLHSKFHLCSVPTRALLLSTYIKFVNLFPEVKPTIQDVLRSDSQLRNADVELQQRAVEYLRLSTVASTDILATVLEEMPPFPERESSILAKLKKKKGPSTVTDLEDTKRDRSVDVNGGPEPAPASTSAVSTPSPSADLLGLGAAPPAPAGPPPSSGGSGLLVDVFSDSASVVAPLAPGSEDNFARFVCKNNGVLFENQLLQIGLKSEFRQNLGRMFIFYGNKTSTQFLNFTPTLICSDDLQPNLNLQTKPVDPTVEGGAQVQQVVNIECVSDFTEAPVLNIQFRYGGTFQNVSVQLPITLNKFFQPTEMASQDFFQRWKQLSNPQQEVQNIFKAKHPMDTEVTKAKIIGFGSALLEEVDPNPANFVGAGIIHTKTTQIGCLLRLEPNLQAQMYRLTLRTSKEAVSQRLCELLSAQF
UniProt O94973, sequence (P53680 whole entry, chain 2 of 2, further chain, the tested form may be a part): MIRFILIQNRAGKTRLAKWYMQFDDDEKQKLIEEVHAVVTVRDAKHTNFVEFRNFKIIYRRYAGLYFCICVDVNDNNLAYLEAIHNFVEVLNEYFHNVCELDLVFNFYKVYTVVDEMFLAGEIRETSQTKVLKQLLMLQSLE

Which decrease of BiFC fluorescence against Nef^LAI does the source give for “Nef protein from the LAI isolate lacking the leucine-based sorting motif (LL/AA) fused to HA and the N-terminal fragment of Venus (from UniProt P03406 1-206) (natural protein)” here?
The decrease of BiFC fluorescence against Nef^LAI was 50%.
